Reference: article PMC4999505, “Linear ubiquitination is involved in the pathogenesis of optineurin-associated amyotrophic lateral sclerosis” (Nature Communications, 2016)

Columns and labels:
[1] = molecular target: T1, linear (M1-linked) tetraubiquitin (UniProt P0CG48 1-76; P0CG48 1-76; P0CG48 1-76; P0CG48 1-76); test: crystal structure; OPTN CC2-UBAN (416–510) crystallised with linear tetraubiquitin, hanging drop, 16% PEG 3350, 250 mM HCOOK, 20 °C; 2.7 Å; details: both partners purified
T1 construct: ubiquitin, first unit of four joined head to tail (M1-linked); ubiquitin, second unit; ubiquitin, third unit; ubiquitin, fourth unit; also called linear tetraubiquitin; linear tetra-ubiquitin; source: E. coli, purified (heat treatment, HiTrap SP, Superdex 200)
T1 sequence (P0CG48 1-304, one chain of several): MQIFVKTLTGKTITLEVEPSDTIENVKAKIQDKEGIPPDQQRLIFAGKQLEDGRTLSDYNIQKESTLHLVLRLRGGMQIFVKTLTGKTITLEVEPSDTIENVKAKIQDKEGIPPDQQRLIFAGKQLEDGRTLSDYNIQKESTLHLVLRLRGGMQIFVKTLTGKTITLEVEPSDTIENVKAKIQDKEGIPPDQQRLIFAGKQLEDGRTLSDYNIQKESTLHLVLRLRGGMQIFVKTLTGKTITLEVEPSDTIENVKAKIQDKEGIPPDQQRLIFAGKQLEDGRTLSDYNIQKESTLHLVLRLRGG

[2] = molecular target: the molecule itself; test: as above

binding result [1]: binds
B1: human OPTN CC2-UBAN region (residues 416–510) (domain or fragment, UniProt Q96CV9 416-510, looked up)
chain: EKVDRAVLKELSEKLELAEKALASKQLQMDEMKQTIAKQEEDLETMTILRAQMEVYCSDFHAERAAREKIHEEKEQLALQLAVLLKENDAFEDGG
notes: residues 445-505 modelled for the longest chain; GST was cut off with Turbo3C (HRV3C) protease; also called OPTN-UBAN; source: E. coli Rosetta 2 (DE3), purified (glutathione Sepharose 4B, on-column cleavage, Resource Q, Superdex 75)
stoichiometry N [2]: 2
